Measurements published in the domain aggregation screens of Martell et al. (2025).

Assay: soluble fraction after stress (log2 fold change); higher = more stays soluble; pooled small domains, quantitative proteomics
Settings: stress: 75 degC
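Also: 20 min heating vs room temperature control held 20 min.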

Point of comparison: “HMQTLQNNLKQIRSRVGLTQGELASRAGISRQAYSTLESGNANPSTEVSLRLAEALNERIESLFFLANQ”, “soluble fraction (log2)” value -0.495. Against it:
- HMQPVLSDAEVNDLKNIAGGERGYNQLMDWAGNNLTAQDAKSYDDVLATGNKAAISFAIKALMGQYEDAN — higher, -0.0478
- HMQQEAVNLVQSRGQQAIEPVHIMQGVMKVGENVTNFIFQKLGMNGQQVALVVDKQIDSLPKVSGGEPYL — higher, 0.124
- HMQQEAVSGKLLQLDLAKKEGRLSTDLGREVLFHIPKPELFVHLSVGQRIIIKLDAGQEAVGV — higher, -0.178
- HMQQELDAFKLLITVSGVGPKAAMAVLSVLPPDRLSIAVSSGDVKSIQSAQGVGKKTAERIVLELKDKM — lower, -0.906
- HMQQIEIEEPITVKNLSAVAGLKASEIIAKLMKLGVMSTINQVMERQHAEEIAGEYGFELVVK — higher, -0.132
- HMQQISDPQVLRPMAEEVLHQSQKVVQDYKGGNKNAFHALVGQMMKKTQGKGNPQVIGQVLSELLDE — higher, 0.98
- HMQQKNWIVRDGDGKIYGPFTTEQVLVQIDRGYFVGGEEVALYPGGRWIAISGAPEFYDRLLDALAMEG — lower, -0.995
- HMQQQLLHIVFGGELKDVTGIEFEDLSKMDFVGAFSNYKDAYDAWKSAAQRTVDHAEMRYFILHAHKLL — lower, -6.11
- HMQQRTVEHVDTAVEALALSIGERAGVDLPYMAHLTGKTQEDLIEDLTGVIFPVPGTEPLRYVTADDYLS — higher, 0.181
- HMQQSVSSLVRRYMLQTIPGINFSLKSTALALNMSDRTLQRKLLSENTSYQIILDDVRKELAIKYLKE — lower, -3.23
- HMQQVIQSGQKVQLMATDGSFQVSAEGVALKNGSVGEVIGVRMPSGRVISGVVSASGAVEVR — higher, 0.125
- HMQQVLGDVNEDDKVDFLDAIVVLRHDAEIIQLTDNQMKAAEVNKDGKVDFLDAIMILRYDAEIIGS — higher, -0.0321
- HMQRDDMQIDRLIQIVFLLLSRNNLTAKQLAEELGVSTRTIYRDINILSVAGIPITSQKGYGGGLSLLQG — within 0.2 log units, -0.608
- HMQRDELRYDQFLTALQNKEFTQLNVRFDDYTYLVTGTFQSGRPFSTRGPVSEEFIRLIESSGVQVTWLPM — lower, -1.65
- HMQRDERYVYHTVLAGETIYSLSRKFNVTMDELLESNPALRSGVLTTGSEIRVLKAQMAQNFD — lower, -1.25
- HMQRQGTVATQQTPLNIRSQPSLSAQVIGQAPKGATVAILGESGDWYQIRYQNITGYSSKQYI — higher, 0.0804
- HMQRSVEDVFVQLRNGMDTYDMTQIEDALRILHGMELSTAQRDLLDKVQEAYNDLEYETGAALLAGFERIK — higher, 0.134
- HMQRYFINEPVPEDQRLVLPKDIAHHLVDVLRAEQNDELEVALNDQKVYLARLISLNPATVELQSDLG — higher, 0.465
- HMQRYFLEEAYQPSEKFELSAEAFHHIVHVMRMKPKDRVYLAFSDQQVIIAEITEITEEKVYLTEIEKEE — lower, -3.23
- HMQRYYDVLGLQKGVSPEELKKTYRELSKKYHPDAHHNSPLRDLAEAKFKEINEAYEKIKEFLDNNF — higher, -0.207
- HMQSAKLSYSDFMQKVNAGDVVSVKIQGPKISGVTTGGGKFMTYAPEDPTLVSTLMQKKVEVMAEP — higher, 0.139
- HMQSAMALTKDLIEQQGKYYHRGQPFTGVGFAKNKKGKFVTEEPFKNGLLHGKRVNYDHNGHVLAREK — higher, -0.105
- HMQSEESTHIGERMLNQALRAMHVEPSAVKEKQWEKLIRDYSVKNKQDILTDIGLGKRQSVMVAHQLLAI — higher, -0.165
- HMQSEISRIGRILKERRLQLGYTQEYAAEKAGISYSYYTKIERGQQLPSLEVAMVLSKTFSLSMDRWL — lower, -4.78
- HMQSFIEELLPVVDNFERSLAVVDPSDEIKNFLKGYEMIYNQLMEVLKSQGVEVIKTEGEEFDPNFHQA — higher, -0.121
- HMQSHIVPDVKSQHIAQAKALLESKQMKAVVIDSNFVKGLPAGIVLDQTPIGGARVKENRTIYLTINTL — lower, -1.56
- HMQSMEIDENEIPSIDKLSEYIEYFKRIYNALFDDKQLAITNIDVLERHFANNFNTLRFKMDE — higher, 0.169
- HMQSNDAGELEAVVKGIIDANPKVVADYLAGNQKVVSFFVGQAMKATKGKANPKMVSEILGKLL — higher, -0.0975
- HMQSQIAQLYNPLLGYVKKRINSREDAEDLTQDIFLKLSKSNKDGVDNLKSWLYTIAKNTITDYYRKKKII — higher, -0.0844
- HMQSREISYSDFVASVERGEVATVILDGENIRFKGGDNVEYVTVRPADTNVTDLLIENQVVVRAEK — higher, 0.231
- HMQSTVSTHQKTLALDTAQSGIPVFPVSSTHKRPLTDHGYKDATADADAVRKIWQQFPSAFV — higher, 0.28
- HMQSVKTQPLRDWLLAHFDKPYPDDEDKVRLAEASGMTRAQVGNWFINARVRTWRPMVLDLGEEIERESV — within 0.2 log units, -0.325
- HMQTEFVISSGEQPKRLDVFLLQREPYLSRAALQRMIAAGWVRVNNHLAKSSQRIKAGDVIVFD — lower, -1.42
- HMQTFGTMIAALRKEQGMTQLELAEKMGVTDKAVSKWERDLSFPDVNSLPKLAEIFHVSVDEL — higher, -0.16
- HMQTLGADLRALRKARGLTLTDMAETLGRSVGWLSQVERDLSEPSITDLRHMARTLGVSVSMLFS — lower, -1.52
- HMQTSETVYTTDKVNVRAGADTSSDKLGSVEKGTSLTRTGTDGDWSIIDYNGTTGYIKSEYLSATAPE — higher, 0.566
- HMQTTKTGTITASSLYVRSGASTSHKVLGTVSKGKTVQIKDTQDGWHKISYNGDHGWVSGKYVSTT — higher, 0.226
